Results taken from paper PMC3792123, “Role of Cysteines in the Stability and DNA-Binding Activity of the Hypochlorite-Specific Transcription Factor HypT” (PLoS ONE, 2013).
Residue numbers refer to the chain shown, from its start. Names may count otherwise.

Experiments:
[1] = molecular target: the molecule itself; assay: AUC; sedimentation velocity, 4 to 10 µM protein, absorbance at 280 nm, 10 mM NaH2PO4, 400 mM NaCl, 5% glycerin, pH 7.5; c(S) method (SedFit)
[2] = molecular target: the molecule itself; assay: cross-linking; disulfide formed on oxidation: purified, reduced protein treated with HOCl (25 µM), NH2Cl (25 µM) or H2O2 (1 mM), then non-reducing SDS-PAGE; disulfide-linked dimer at ca. 64 kDa, mostly reduced again by 1 mM TCEP

B1: HypT (wild-type, purified) (natural protein, E. coli, UniProt P39376 1-303, looked up)
chain: MDDCGAILHNIETKWLYDFLTLEKCRNFSQAAVSRNVSQPAFSRRIRALEQAIGVELFNRQVTPLQLSEQGKIFHSQIRHLLQQLESNLAELRGGSDYAQRKIKIAAAHSLSLGLLPSIISQMPPLFTWAIEAIDVDEAVDKLREGQSDCIFSFHDEDLLEAPFDHIRLFESQLFPVCASDEHGEALFNLAQPHFPLLNYSRNSYMGRLINRTLTRHSELSFSTFFVSSMSELLKQVALDGCGIAWLPEYAIQQEIRSGKLVVLNRDELVIPIQAYAYRMNTRMNPVAERFWRELRELEIVLS
notes: HypT (YjiE), HOCl-specific LysR-type transcription factor of E. coli; Oxidation (HOCl, NH2Cl, H2O2) gives a Cys4-Cys4 disulfide between two chains; also called YjiE; wild-type HypT; source: E. coli BL21 (DE3) gold, pET11a, purified (HisTrap, PD10 desalting); copies: 12
stoichiometry N [1]: 12

B2: HypT^C242S (natural protein, E. coli, UniProt P39376 1-303, looked up)
chain: B1 chain with C242S
notes: HypT (YjiE) of E. coli, single mutant C242S; source: E. coli BL21 (DE3) gold, pET11a, purified (HisTrap, PD10 desalting)
binding result [2]: binds

B3: HypT^C150S (natural protein, E. coli, UniProt P39376 1-303, looked up)
chain: B1 chain with C150S
notes: HypT (YjiE) of E. coli, single mutant C150S; source: E. coli BL21 (DE3) gold, pET11a, purified (HisTrap, PD10 desalting)
binding result [2]: binds

B4: HypT^5C→S (natural protein, E. coli, UniProt P39376 1-303, looked up)
chain: B1 chain with C4S, C25S, C150S, C178S, C242S
notes: also called cysteine-free HypT mutant; source: E. coli BL21 (DE3) gold, pET28a, purified (HisTrap, PD10 desalting)
stoichiometry N [1]: 4

B5: HypT^C25S (natural protein, E. coli, UniProt P39376 1-303, looked up)
chain: B1 chain with C25S
notes: HypT (YjiE) of E. coli, single mutant C25S; source: E. coli BL21 (DE3) gold, pET28a, purified (HisTrap, PD10 desalting)
binding result [2]: binds

B6: HypT^quadrupleC150 (natural protein, E. coli, UniProt P39376 1-303, looked up)
chain: B1 chain with C4S, C25S, C178S, C242S
notes: HypT (YjiE) of E. coli, quadruple mutant: four cysteines replaced by serine, Cys150 left intact; source: E. coli BL21 (DE3) gold, pET28a, purified (HisTrap, PD10 desalting)
binding result [1]: binds

B7: HypT^C178S (natural protein, E. coli, UniProt P39376 1-303, looked up)
chain: B1 chain with C178S
notes: HypT (YjiE) of E. coli, single mutant C178S; source: E. coli BL21 (DE3) gold, pET11a, purified (HisTrap, PD10 desalting)
binding result [2]: binds
